Results as given in patent US10370647B2 (priority 2015, dated 2019).

Legend:
KFtx series = format: cell-based; conditions: 72 hours
ERK = test: Change in pERK/tERK by EGF stimulation (In-Cell ELISA); format: cell-based; conditions: all cells (Low, UCA1 Low, Empty Low, KFtx); 0.2 ng/μl EGF, 30 minutes; 10% or 0.5% FBS
Method: The KFtx series (Low, UCA1 Low, Empty Low, and KFtx) were seeded at a cell density of 6×10^3/well in 10% FBS-containing RPMI on a 96-well plate, and were then cultured at 37° C. for 12 hours. Thereafter, the medium was exchanged with RPMI containing 10% FBS or 0.5% FBS. The cells were further cultured at 37° C. for 24 hours, and the medium was then exchanged with another one, to result in an EGF concentration of 0.2 ng/μl. After 30 minutes of EGF stimulation, tERK (total-ERK) and pERK (phosphorylated-ERK) were measured using Pierce Colorimetric In-Cell ELISA Kits (n=3). […] In addition, it was confirmed that, in all cells, pERK was activated by EGF stimulation and the percentage of the pERK was increased.

B1: EGF (protein, UniProt P01133 23-1207, looked up)
Pro-epidermal growth factor: PQHWSCPEGTLAGNGNSTCVGPAPFLIFSHGNSIFRIDTEGTNYEQLVVDAGVSVIMDFHYNEKRIYWVDLERQLLQRVFLNGSRQERVCNIEKNVSGMAINWINEEVIWSNQQEGIITVTDMKGNNSHILLSALKYPANVAVDPVERFIFWSSEVAGSLYRADLDGVGVKALLETSEKITAVSLDVLDKRLFWIQYNREGSNSLICSCDYDGGSVHISKHPTQHNLFAMSLFGDRIFYSTWKMKTIWIANKHTGKDMVRINLHSSFVPLGELKVVHPLAQPKAEDDTWEPEQKLCKLRKGNCSSTVCGQDLQSHLCMCAEGYALSRDRKYCEDVNECAFWNHGCTLGCKNTPGSYYCTCPVGFVLLPDGKRCHQLVSCPRNVSECSHDCVLTSEGPLCFCPEGSVLERDGKTCSGCSSPDNGGCSQLCVPLSPVSWECDCFPGYDLQLDEKSCAASGPQPFLLFANSQDIRHMHFDGTDYGTLLSQQMGMVYALDHDPVENKIYFAHTALKWIERANMDGSQRERLIEEGVDVPEGLAVDWIGRRFYWTDRGKSLIGRSDLNGKRSKIITKENISQPRGIAVHPMAKRLFWTDTGINPRIESSSLQGLGRLVIASSDLIWPSGITIDFLTDKLYWCDAKQSVIEMANLDGSKRRRLTQNDVGHPFAVAVFEDYVWFSDWAMPSVMRVNKRTGKDRVRLQGSMLKPSSLVVVHPLAKPGADPCLYQNGGCEHICKKRLGTAWCSCREGFMKASDGKTCLALDGHQLLAGGEVDLKNQVTPLDILSKTRVSEDNITESQHMLVAEIMVSDQDDCAPVGCSMYARCISEGEDATCQCLKGFAGDGKLCSDIDECEMGVPVCPPASSKCINTEGGYVCRCSEGYQGDGIHCLDIDECQLGEHSCGENASCTNTEGGYTCMCAGRLSEPGLICPDSTPPPHLREDDHHYSVRNSDSECPLSHDGYCLHDGVCMYIEALDKYACNCVVGYIGERCQYRDLKWWELRHAGHGQQQKVIVVAVCVVVLVMLLLLSLWGAHYYRTQKLLSKNPKNPYEESSRDVRSRRPADTEDGMSSCPQPWFVVIKEHQDLKNGGQPVAGEDGQAADGSMQPTSWRQEPQLCGMGTEQGCWIPVSSDKGSCPQVMERSFHMPSYGTQTLEGGVEKPHSLLSANPLWQQRALDPPHQMELTQ
modifications: Pro-epidermal growth factor
- replication ability of the vaccinia virus by EGF stimulation (KFtx series): not enhanced
- percentage of the pERK (ERK): increased
